Measured values reported in patent US8008452B2, “Phosphorylated Ndr kinase” (Novartis Forschungesstiftung, Zweigniederlassung Friedrich …, priority 2002, dated 2011).

Experiments:
[1] = test system: GST-NDR1; assay: GST-NDR1 kinase assay (peptide kinase assay); assay type: biochemical, human
Procedure: 1 microgram of purified recombinant GST-NDR1 wild type and mutants (without further treatment or autophosphorylated for 2 h in the presence or absence of 1 mM CaCl2 and […] (Sigma)) were assayed in 20 microliter of reaction mixture containing 20 mM Tris-HCl pH 7.5, 10 mM MgCl2, 1 mM DTT, 100 microM [gamma-^32P]ATP (˜0.5 microCi/microliter), and 1 mM NDR1 substrate peptide ([…]; SEQ ID NO:22). After 30 mins incubation at 30° C., reactions were stopped with 50 mM EDTA, and 10 microliters of reaction mixture were spotted onto 2 cm^2 squares of P81 phosphocellulose paper (Whatman). These were subsequently washed for 4×5 min and 3×20 min in 1% phosphoric acid and once in acetone before counting in a liquid scintillation counter. One unit of NDR1 activity was defined as the amount which catalyses the phosphorylation of 1 nmol peptide substrate in 1 min.
Specific activity of GST-NDR1 mutants was also measured by a peptide kinase assay as described above. For this purpose, 1 microgram of purified GST-NDR1 wild type and alanine mutants were left without further treatment or autophosphorylated for 2 h in the presence or absence of 1 mM CaCl2 and […].

[2] = test system: HA-NDR1; assay: HA-NDR1 kinase assay on 12CA5 immunoprecipitates from transfected, treated COS-1 cells; assay type: cell-based, human; settings: COS-1 cells
Procedure: In some experiments, the cells were treated for 60 min with 1 microM okadaic acid in 0.1% N,N-dimethylformamide (DMF) (Alexis Corp.), 50 microM BAPTA-AM (1,2-bis (o-aminophenoxy) ethane-N,N,N′,N′-tetraacetic acid tetra (acetoxy-methyl)ester) in 0.1% diimethylsulfoxide (DMSO; Sigma), or 20 microM thapsigargin in 0.1% DMSO (Alomone) 24 hours after transfection.
Transfected and treated COS-1 cells were washed once with ice-cold PBS, and harvested by rubber policeman in 1 ml ice-cold PBS containing 1 mM Na3VO4 and 20 mM beta-glycerophosphate before lysis in 500 microliters of IP buffer (20 mM Tris-HCl pH 8.0, 150 mM NaCl, 1% Nonidet P-40, 10% glycerol, 1 mM Na3VO4, 20 mM beta-glycerolphosphate, 1 microM microcystin-LR, 50 mM NaF, 0.5 mM PMSF, 4 microM leupeptin, 1 mM benzamidine, and 1 tablet/10 ml IP of Complete protease inhibitors (Roche)). Lysates were centrifuged at 20 000 g for 20 min and triplicate aliquots (200 microg) of supernatant were precleared with protein A-Sepharose (Amersham Pharmacia Biotech) for 60 min and mixed subsequently for 3 h at 4° C. with 12CA5 antibody prebound to protein A-Sepharose (˜1 microg antibody bound to 2 microl beads). The beads were then washed twice with IP buffer, once for 10 min with IP buffer containing 1 M NaCl, once again for 10 min with IP buffer, and finally twice with 20 mM Tris-HCl pH 7.5 containing 4 microM leupeptin and 1 mM benzamidine. […] After 60 min incubation at 30° C., 15 microliters of supernatant were removed, and phosphate incorporation into the substrate peptide determined as described for GST-NDR1 above. […]
To test whether hMOB1 plays a role in NDR activation, myc-hMOB1 or the empty vector was cotransfected with HA-NDR1 in COS1 cells and treated with OA. […] The reactions were resolved on a 10% SDS PAGE and the radioactivity visualised by using a phosphoimager.

B1: S281A: NDR1 alanine mutant of phosphorylation residue Ser281; GST fusion or HA-tagged (protein)
chain: MAMTGSTPCSSMSNHTKERVTMTKVTLENFYSNLIAQHEEREMRQKKLEKVMEEEGLKDEEKRLRRSAHARKETEFLRLKRTRLGLEDFESLKVIGRGAFGEVRLVQKKDTGHVYAMKILRKADMLEKEQVGHIRAERDILVEADSLWVVKMFYSFQDKLNLYLIMEFLPGGDMMTLLMKKDTLTEEETQFYIAETVLAIDSIHQLGFIHRDIKPDNLLLDSKGHVKLSDFGLCTGLKKAHRTEFYRNLNHSLPSDFTFQNMNSKRKAETWKRNRRQLAFATVGTPDYIAPEVFMQTGYNKLCDWWSLGVIMYEMLIGYPPFCSETPQETYKKVMNWKETLTFPPEVPISEKAKDLILRFCCEWEHRIGAPGVEEIKSNSFFEGVDWEHIRERPAAISIEIKSIDDTSNFDEFPESDILKPTVATSNHPETDYKNKDWVFINYTYKRFEGLTARGAIPSYMKAAK
modifications: left off: small tags and cut ends
notes: NDR1 alanine mutant of phosphorylation residue Ser281; GST fusion or HA-tagged
Specific activity of GST-NDR1 variants, −S100B ([1]; autophosphorylated 2 h in the absence of CaCl2 and S100B): 0.514 | Specific activity of GST-NDR1 variants, +S100B ([1]; autophosphorylated 2 h in the presence of 1 mM CaCl2 and 10 mM bovine S100B): 0.952 | kinase activity of GST-NDR1 mutant (in words) ([1]; compared with wild type): almost undetectable | Specific activity of GST-NDR1 variants, CTRL ([1]; left without further treatment): 0.16 | kinase activity of HA-NDR1 variants, +OA ([2]; 1 microM okadaic acid 1 h): 0.1113 | kinase activity of HA-NDR1 variants, −OA ([2]; solvent alone 1 h): 0.0357
